{"source": "paper PMC9168451", "key": {"[1]": {"biological_target": "AbMtlD H434C_Y469C double-cysteine variant (Acinetobacter baumannii)"}, "[2]": {"biological_target": "AbMtlD Y427C_A466C double-cysteine variant (Acinetobacter baumannii)"}, "[3]": {"biological_target": "Acinetobacter baumannii bifunctional mannitol-1-phosphate dehydrogenase/phosphatase (AbMtlD), wild type (Acinetobacter baumannii)", "assay": "SEC-MALS"}}, "data": [{"substance": "AbMtlD H434C_Y469C double-cysteine variant (from UniProt A0ABX6CFK3 1-715) (enzyme)", "values": [{"measurement": "F6P reduction activity, kcat/Km for F6P (wild type: 2.388)", "setting": "[1]", "result": 149, "unit": "mM⁻¹ s⁻¹"}]}, {"substance": "AbMtlD Y427C_A466C double-cysteine variant (from UniProt A0ABX6CFK3 1-715) (enzyme)", "values": [{"measurement": "F6P reduction activity, kcat/Km for F6P (wild type: 2.388)", "setting": "[2]", "result": 139, "unit": "mM⁻¹ s⁻¹"}]}, {"substance": "Acinetobacter baumannii bifunctional mannitol-1-phosphate dehydrogenase/phosphatase (AbMtlD), wild type (from UniProt A0ABX6CFK3 1-715) (enzyme)", "values": [{"measurement": "stoichiometry N", "setting": "[3]", "result": 2}]}]}
